Target: the molecule itself
Assay: SAXS; purified proteins or co-expressed, co-purified complexes in solution; 50 mM Tris-Cl pH 8.0, 100 mM KCl, 5 mM MgCl2, 5 mM 2-mercaptoethanol; 10°C or 25°C; 3-6 concentrations between 7.8 and 0.15 mg/ml; homodimers told from measurements at low concentrations

Row | Protein | stoichiometry N
1 | Mft1pΔC336-392 with C-terminal 6xHis tag (isolated protein) (domain or fragment, Saccharomyces cerevisiae, UniProt P33441 1-335, looked up, pET-30 Ek/LIC vector; purified without TEV cleavage; also called isolated Mft1p; source: E. coli Rosetta (DE3), purified (Ni-NTA, Source 15Q, Superdex 200); not shown: 6xHis, C-terminal, kept) MPLSQKQIDQVRTKVHYSEVDTPFNKYLDILGKVTKLTGSIINGTLSNDDSKIEKLTEQNISQLKESAHLRFLDLQSSIDTKKVADENWETCQQETLAKLENLKDKLPDIKSIHSKLLLRIGKLQGLYDSVQVINREVEGLSEGRTSLVVTRAEWEKELGTDLVKFLIEKNYLKLVDPGLKKDSSEERYRIYDDFSKGPKELESINASMKSDIENVRQEVSSYKEKWLRDAEIFGKITSIFKEELLKRDGLLNEAEGDNIDEDYESDEDEERKERFKRQRSMVEVNTIENVDEKEESDHEYDDQEDEENEEEDDMEVDVEDIKEDNEVDGESSQQ | 2
2 | Thp2p with C-terminal 6xHis tag (isolated protein) (natural protein, Saccharomyces cerevisiae, UniProt O13539 1-261, looked up, Thp2p, Saccharomyces cerevisiae; pET-30 Ek/LIC vector; purified without TEV cleavage; also called isolated Thp2p; source: E. coli Rosetta (DE3), purified (Ni-NTA, Source 15Q, Superdex 200); not shown: 6xHis, C-terminal, kept) MTKEEGRTYFESLCEEEQSLQESQTHLLNILDILSVLADPRSSDDLLTESLKKLPDLHRELINSSIRLRYDKYQTREAQLLEDTKTGRDVAAGVQNPKSISEYYSTFEHLNRDTLRYINLLKRLSVDLAKQVEVSDPSVTVYEMDKWVPSEKLQGILEQYCAPDTDIRGVDAQIKNYLDQIKMARAKFGLENKYSLKERLSTLTKELNHWRKEWDDIEMLMFGDDAHSMKKMIQKIDSLKSEINAPSESYPVDKEGDIVLE | 2
